Experimental data: the supplement of paper PMC9233669
Variants at the floor of the assay were thinned out.

Legend:
biotinyl-Phe-oxazolone = test: self-aminoacylation, catalytic enhancement (BFO) (fold over background); higher = more active; k-Seq, kA / k0A0; sequences stand for … in GGGAAUGGAUCCACAUCUACGAAUUC…UUCACUGCAGACUUGACGAAGCUG
Outline: (§1)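 Mutagenized RNA pools with a 21-nt variable region (0.43 μM) reacted with each biotinyl-aminoacyl-oxazolone at 2–1250 μM. Reactions ran in 50 μL HEPES/NaCl/KCl/MgCl2/CaCl2 buffer with 5% acetonitrile, pH 6.9–7.0, for 90 minutes at room temperature. Streptavidin-captured RNA was quantified by triplicate qPCR and Illumina sequencing, and per-sequence fraction reacted was fit to a pseudo-first-order model with 1000 bootstraps. Catalytic enhancement is median kA divided by the uncatalyzed rate, the low-activity peak of a bimodal Gaussian fit.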

biotinyl-Ile-oxazolone = test: self-aminoacylation, catalytic enhancement (BIO) (fold over background); higher = more active; k-Seq, kA / k0A0; sequences stand for … in GGGAAUGGAUCCACAUCUACGAAUUC…UUCACUGCAGACUUGACGAAGCUG
Outline: as §1

biotinyl-Met-oxazolone = test: self-aminoacylation, catalytic enhancement (BMO) (fold over background); higher = more active; k-Seq, kA / k0A0; sequences stand for … in GGGAAUGGAUCCACAUCUACGAAUUC…UUCACUGCAGACUUGACGAAGCUG
Outline: as §1

biotinyl-Val-oxazolone = test: self-aminoacylation, catalytic enhancement (BVO) (fold over background); higher = more active; k-Seq, kA / k0A0; sequences stand for … in GGGAAUGGAUCCACAUCUACGAAUUC…UUCACUGCAGACUUGACGAAGCUG
Outline: as §1

biotinyl-Leu-oxazolone = test: self-aminoacylation, catalytic enhancement (BLO) (fold over background); higher = more active; k-Seq, kA / k0A0; sequences stand for … in GGGAAUGGAUCCACAUCUACGAAUUC…UUCACUGCAGACUUGACGAAGCUG
Outline: as §1

biotinyl-Trp-oxazolone = test: self-aminoacylation, catalytic enhancement (BWO) (fold over background); higher = more active; k-Seq, kA / k0A0; sequences stand for … in GGGAAUGGAUCCACAUCUACGAAUUC…UUCACUGCAGACUUGACGAAGCUG
Outline: as §1

Sequence: AAGUUUGCUAAUAGUCUAAAG [Fam3.1 aminoacylation ribozyme variant]
- self-aminoacylation (biotinyl-Phe-oxazolone): 5.62
- self-aminoacylation (biotinyl-Ile-oxazolone): 1.28
- self-aminoacylation (biotinyl-Met-oxazolone): 0.959
- self-aminoacylation (biotinyl-Val-oxazolone): 1.28
- self-aminoacylation (biotinyl-Leu-oxazolone): 0.882
- self-aminoacylation (biotinyl-Trp-oxazolone): 1.9

Sequence: AAGUUUGCUAAUAGUCUGAAG [Fam3.1 aminoacylation ribozyme variant]
- self-aminoacylation (biotinyl-Phe-oxazolone): 3.77
- self-aminoacylation (biotinyl-Ile-oxazolone): 1.01
- self-aminoacylation (biotinyl-Met-oxazolone): 0.971
- self-aminoacylation (biotinyl-Val-oxazolone): 1.07
- self-aminoacylation (biotinyl-Leu-oxazolone): 0.996
- self-aminoacylation (biotinyl-Trp-oxazolone): 1.34

Sequence: AAGUUUGCUAAUAGUCUUAAG [Fam3.1 aminoacylation ribozyme variant]
- self-aminoacylation (biotinyl-Phe-oxazolone): 25.7
- self-aminoacylation (biotinyl-Ile-oxazolone): 1.16
- self-aminoacylation (biotinyl-Met-oxazolone): 1.24
- self-aminoacylation (biotinyl-Val-oxazolone): 1.11
- self-aminoacylation (biotinyl-Leu-oxazolone): 1.11
- self-aminoacylation (biotinyl-Trp-oxazolone): 6.3

Sequence: AAGUUUGCUAAUAGUGGCAAC [Fam3.1 aminoacylation ribozyme variant]
- self-aminoacylation (biotinyl-Phe-oxazolone): 0.826
- self-aminoacylation (biotinyl-Ile-oxazolone): 0.805
- self-aminoacylation (biotinyl-Met-oxazolone): 0.737
- self-aminoacylation (biotinyl-Val-oxazolone): 0.822
- self-aminoacylation (biotinyl-Leu-oxazolone): 0.783
- self-aminoacylation (biotinyl-Trp-oxazolone): 0.575

Sequence: AAGUUUGCUAAUAGUGGCAUG [Fam3.1 aminoacylation ribozyme variant]
- self-aminoacylation (biotinyl-Phe-oxazolone): 1.1
- self-aminoacylation (biotinyl-Ile-oxazolone): 0.823
- self-aminoacylation (biotinyl-Met-oxazolone): 0.821
- self-aminoacylation (biotinyl-Val-oxazolone): 0.772
- self-aminoacylation (biotinyl-Leu-oxazolone): 0.754
- self-aminoacylation (biotinyl-Trp-oxazolone): 0.862

Sequence: AAGUUUGCUAAUAGUGGGAAG [Fam3.1 aminoacylation ribozyme variant]
- self-aminoacylation (biotinyl-Phe-oxazolone): 1.48
- self-aminoacylation (biotinyl-Ile-oxazolone): 0.841
- self-aminoacylation (biotinyl-Met-oxazolone): 0.971
- self-aminoacylation (biotinyl-Val-oxazolone): 1.03
- self-aminoacylation (biotinyl-Leu-oxazolone): 0.876
- self-aminoacylation (biotinyl-Trp-oxazolone): 0.598

Sequence: AAGUUUGCUAAUAGUUGCAAU [Fam3.1 aminoacylation ribozyme variant]
- self-aminoacylation (biotinyl-Phe-oxazolone): 1.25
- self-aminoacylation (biotinyl-Ile-oxazolone): 1.26
- self-aminoacylation (biotinyl-Met-oxazolone): 1.15
- self-aminoacylation (biotinyl-Val-oxazolone): 1.31
- self-aminoacylation (biotinyl-Leu-oxazolone): 0.88
- self-aminoacylation (biotinyl-Trp-oxazolone): 1.29

Sequence: AAGUUUGCUAAUAGUUGCACG [Fam3.1 aminoacylation ribozyme variant]
- self-aminoacylation (biotinyl-Phe-oxazolone): 1.38
- self-aminoacylation (biotinyl-Ile-oxazolone): 1.11
- self-aminoacylation (biotinyl-Met-oxazolone): 1.31
- self-aminoacylation (biotinyl-Val-oxazolone): 1.14
- self-aminoacylation (biotinyl-Leu-oxazolone): 1.1
- self-aminoacylation (biotinyl-Trp-oxazolone): 1.75

Sequence: AAGUUUGCUAAUAGUUGCAUG [Fam3.1 aminoacylation ribozyme variant]
- self-aminoacylation (biotinyl-Phe-oxazolone): 1.14
- self-aminoacylation (biotinyl-Ile-oxazolone): 0.96
- self-aminoacylation (biotinyl-Met-oxazolone): 0.831
- self-aminoacylation (biotinyl-Val-oxazolone): 0.934
- self-aminoacylation (biotinyl-Leu-oxazolone): 1.14
- self-aminoacylation (biotinyl-Trp-oxazolone): 0.685

Sequence: AAGUUUGCUAAUAGUUGUAAG [Fam3.1 aminoacylation ribozyme variant]
- self-aminoacylation (biotinyl-Phe-oxazolone): 2.23
- self-aminoacylation (biotinyl-Ile-oxazolone): 1.29
- self-aminoacylation (biotinyl-Met-oxazolone): 1.48
- self-aminoacylation (biotinyl-Val-oxazolone): 1.28
- self-aminoacylation (biotinyl-Leu-oxazolone): 1.12
- self-aminoacylation (biotinyl-Trp-oxazolone): 1.55

Sequence: AAGUUUGCUAAUAUCCGCAAG [Fam3.1 aminoacylation ribozyme variant]
- self-aminoacylation (biotinyl-Phe-oxazolone): 1.18
- self-aminoacylation (biotinyl-Ile-oxazolone): 0.911
- self-aminoacylation (biotinyl-Met-oxazolone): 0.725
- self-aminoacylation (biotinyl-Val-oxazolone): 0.886
- self-aminoacylation (biotinyl-Leu-oxazolone): 0.845
- self-aminoacylation (biotinyl-Trp-oxazolone): 0.739

Sequence: AAGUUUGCUAAUCGACGCAAG [Fam3.1 aminoacylation ribozyme variant]
- self-aminoacylation (biotinyl-Phe-oxazolone): 0.783
- self-aminoacylation (biotinyl-Ile-oxazolone): 0.534
- self-aminoacylation (biotinyl-Met-oxazolone): 0.581
- self-aminoacylation (biotinyl-Val-oxazolone): 0.547
- self-aminoacylation (biotinyl-Leu-oxazolone): 0.477
- self-aminoacylation (biotinyl-Trp-oxazolone): 0.72

Sequence: AAGUUUGCUAAUCGUCACAAG [Fam3.1 aminoacylation ribozyme variant]
- self-aminoacylation (biotinyl-Phe-oxazolone): 1.3
- self-aminoacylation (biotinyl-Ile-oxazolone): 0.966
- self-aminoacylation (biotinyl-Met-oxazolone): 0.828
- self-aminoacylation (biotinyl-Val-oxazolone): 0.978
- self-aminoacylation (biotinyl-Leu-oxazolone): 0.881
- self-aminoacylation (biotinyl-Trp-oxazolone): 0.982

Sequence: AAGUUUGCUAAUCGUCGCACG [Fam3.1 aminoacylation ribozyme variant]
- self-aminoacylation (biotinyl-Phe-oxazolone): 0.692
- self-aminoacylation (biotinyl-Ile-oxazolone): 0.983
- self-aminoacylation (biotinyl-Met-oxazolone): 0.842
- self-aminoacylation (biotinyl-Val-oxazolone): 0.873
- self-aminoacylation (biotinyl-Leu-oxazolone): 1.16
- self-aminoacylation (biotinyl-Trp-oxazolone): 0.937

Sequence: AAGUUUGCUAAUCGUCGCAUG [Fam3.1 aminoacylation ribozyme variant]
- self-aminoacylation (biotinyl-Phe-oxazolone): 0.667
- self-aminoacylation (biotinyl-Ile-oxazolone): 1.03
- self-aminoacylation (biotinyl-Met-oxazolone): 0.922
- self-aminoacylation (biotinyl-Val-oxazolone): 0.923
- self-aminoacylation (biotinyl-Leu-oxazolone): 0.957
- self-aminoacylation (biotinyl-Trp-oxazolone): 0.804

Sequence: AAGUUUGCUAAUCGUGGCAAG [Fam3.1 aminoacylation ribozyme variant]
- self-aminoacylation (biotinyl-Phe-oxazolone): 0.796
- self-aminoacylation (biotinyl-Ile-oxazolone): 0.713
- self-aminoacylation (biotinyl-Met-oxazolone): 0.604
- self-aminoacylation (biotinyl-Val-oxazolone): 0.813
- self-aminoacylation (biotinyl-Leu-oxazolone): 0.521
- self-aminoacylation (biotinyl-Trp-oxazolone): 0.625

Sequence: AAGUUUGCUAAUCGUUGCAAG [Fam3.1 aminoacylation ribozyme variant]
- self-aminoacylation (biotinyl-Phe-oxazolone): 1.13
- self-aminoacylation (biotinyl-Ile-oxazolone): 0.834
- self-aminoacylation (biotinyl-Met-oxazolone): 0.824
- self-aminoacylation (biotinyl-Val-oxazolone): 0.881
- self-aminoacylation (biotinyl-Leu-oxazolone): 0.77
- self-aminoacylation (biotinyl-Trp-oxazolone): 0.987

Sequence: AAGUUUGCUAAUGGUCGGAAG [Fam3.1 aminoacylation ribozyme variant]
- self-aminoacylation (biotinyl-Phe-oxazolone): 1.55
- self-aminoacylation (biotinyl-Ile-oxazolone): 0.861
- self-aminoacylation (biotinyl-Met-oxazolone): 0.811
- self-aminoacylation (biotinyl-Val-oxazolone): 0.91
- self-aminoacylation (biotinyl-Leu-oxazolone): 0.849
- self-aminoacylation (biotinyl-Trp-oxazolone): 0.587

Sequence: AAGUUUGCUAAUUGGCGCAAG [Fam3.1 aminoacylation ribozyme variant]
- self-aminoacylation (biotinyl-Phe-oxazolone): 2.62
- self-aminoacylation (biotinyl-Ile-oxazolone): 0.829
- self-aminoacylation (biotinyl-Met-oxazolone): 0.964
- self-aminoacylation (biotinyl-Val-oxazolone): 0.935
- self-aminoacylation (biotinyl-Leu-oxazolone): 1.1
- self-aminoacylation (biotinyl-Trp-oxazolone): 0.714

Sequence: AAGUUUGCUAAUUGUCCCAAG [Fam3.1 aminoacylation ribozyme variant]
- self-aminoacylation (biotinyl-Phe-oxazolone): 2.16
- self-aminoacylation (biotinyl-Ile-oxazolone): 1.28
- self-aminoacylation (biotinyl-Met-oxazolone): 1.15
- self-aminoacylation (biotinyl-Val-oxazolone): 1.21
- self-aminoacylation (biotinyl-Leu-oxazolone): 0.999
- self-aminoacylation (biotinyl-Trp-oxazolone): 1.01

Sequence: AAGUUUGCUACUACUCGCAAG [Fam3.1 aminoacylation ribozyme variant]
- self-aminoacylation (biotinyl-Phe-oxazolone): 0.639
- self-aminoacylation (biotinyl-Ile-oxazolone): 0.565
- self-aminoacylation (biotinyl-Met-oxazolone): 0.647
- self-aminoacylation (biotinyl-Val-oxazolone): 0.855
- self-aminoacylation (biotinyl-Leu-oxazolone): 0.791
- self-aminoacylation (biotinyl-Trp-oxazolone): 0.621

Sequence: AAGUUUGCUACUAGCCGCAAG [Fam3.1 aminoacylation ribozyme variant]
- self-aminoacylation (biotinyl-Phe-oxazolone): 1.27
- self-aminoacylation (biotinyl-Ile-oxazolone): 0.746
- self-aminoacylation (biotinyl-Met-oxazolone): 0.786
- self-aminoacylation (biotinyl-Val-oxazolone): 0.638
- self-aminoacylation (biotinyl-Leu-oxazolone): 0.51
- self-aminoacylation (biotinyl-Trp-oxazolone): 0.996
